The source of these data is publication PMC12018148.

For test [1], the target named is activated factor X (FXa) (human). Nature of the test: kinetics of protease inhibition.
The target in test [2] is activated factor XI (FXIa) (human). Nature of the test: kinetics of protease inhibition.

Sequence of activated factor X (FXa) (human) (P00742 whole entry): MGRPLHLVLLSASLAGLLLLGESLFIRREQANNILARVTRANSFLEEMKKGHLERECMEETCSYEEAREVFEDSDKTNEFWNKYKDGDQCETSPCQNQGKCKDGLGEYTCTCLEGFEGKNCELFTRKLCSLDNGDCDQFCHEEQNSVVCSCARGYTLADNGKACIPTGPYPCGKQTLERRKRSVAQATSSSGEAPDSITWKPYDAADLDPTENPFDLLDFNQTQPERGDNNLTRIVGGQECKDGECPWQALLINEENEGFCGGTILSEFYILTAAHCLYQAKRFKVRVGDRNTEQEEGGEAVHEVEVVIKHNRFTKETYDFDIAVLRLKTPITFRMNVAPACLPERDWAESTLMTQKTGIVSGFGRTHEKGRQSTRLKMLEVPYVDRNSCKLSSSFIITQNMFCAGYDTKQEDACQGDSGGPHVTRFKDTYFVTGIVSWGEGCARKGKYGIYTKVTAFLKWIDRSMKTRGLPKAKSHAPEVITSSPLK

B1: protein Z-dependent protease inhibitor (ZPI), wild type, recombinant human (natural protein)
chain: LAPSPQSPETPAPQNQTSRVVQAPKEEEEDEQEASEEKASEEEKAWLMASRQQLAKETSNFGFSLLRKISMRHDGNMVFSPFGMSLAMTGLMLGATGPTETQIKRGLHLQALKPTKPGLLPSLFKGLRETLSRNLELGLTQGSFAFIHKDFDVKETFFNLSKRYFDTECVPMNFRNASQAKRLMNHYINKETRGKIPKLFDEINPETKLILVDYILFKGKWLTPFDPVFTEVDTFHLDKYKTIKVPMMYGAGKFASTFDKNFRCHVLKLPYQGNATMLVVLMEKMGDHLALEDYLTTDLVETWLRNMKTRNMEVFFPKFKLDQKYEMHELLRQMGIRRIFSPFADLSELSATGRNLQVSRVLQRTVIEVDERGTEAVAGILSEITAYSMPPVIKVDRPFHFMIYEETSGMLLFLGRVVNPTLL
In test [1], B1 had a ka with equimolar PZ and lipids, no FVa of 1.79e+06 M⁻¹ s⁻¹; a ka with equimolar PZ, lipids and FVa of 296000 M⁻¹ s⁻¹; an association rate constant (kon) of 9200 M⁻¹ s⁻¹. In addition, in test [2], the Kd came to 2 nM and the kon was 86200 M⁻¹ s⁻¹.

B2: D293A ZPI (protein Z-dependent protease inhibitor with Asp 293 mutated to Ala), recombinant human (natural protein)
chain: LAPSPQSPETPAPQNQTSRVVQAPKEEEEDEQEASEEKASEEEKAWLMASRQQLAKETSNFGFSLLRKISMRHDGNMVFSPFGMSLAMTGLMLGATGPTETQIKRGLHLQALKPTKPGLLPSLFKGLRETLSRNLELGLTQGSFAFIHKDFDVKETFFNLSKRYFDTECVPMNFRNASQAKRLMNHYINKETRGKIPKLFDEINPETKLILVDYILFKGKWLTPFDPVFTEVDTFHLDKYKTIKVPMMYGAGKFASTFDKNFRCHVLKLPYQGNATMLVVLMEKMGDHLALEAYLTTDLVETWLRNMKTRNMEVFFPKFKLDQKYEMHELLRQMGIRRIFSPFADLSELSATGRNLQVSRVLQRTVIEVDERGTEAVAGILSEITAYSMPPVIKVDRPFHFMIYEETSGMLLFLGRVVNPTLL
Regarding B2, in test [1], the ka with equimolar PZ and lipids, no FVa was determined as 85000 M⁻¹ s⁻¹; the ka with equimolar PZ, lipids and FVa worked out at 6800 M⁻¹ s⁻¹; the on-rate constant (kon) worked out at 9500 M⁻¹ s⁻¹. For the same molecule, in test [2], the Kd amounted to 2 nM and the kon is 112000 M⁻¹ s⁻¹.

B3: D293A/Y387D ZPI (double mutant of the protein Z-dependent protease inhibitor; P1 residue Y387 changed) (natural protein)
chain: LAPSPQSPETPAPQNQTSRVVQAPKEEEEDEQEASEEKASEEEKAWLMASRQQLAKETSNFGFSLLRKISMRHDGNMVFSPFGMSLAMTGLMLGATGPTETQIKRGLHLQALKPTKPGLLPSLFKGLRETLSRNLELGLTQGSFAFIHKDFDVKETFFNLSKRYFDTECVPMNFRNASQAKRLMNHYINKETRGKIPKLFDEINPETKLILVDYILFKGKWLTPFDPVFTEVDTFHLDKYKTIKVPMMYGAGKFASTFDKNFRCHVLKLPYQGNATMLVVLMEKMGDHLALEAYLTTDLVETWLRNMKTRNMEVFFPKFKLDQKYEMHELLRQMGIRRIFSPFADLSELSATGRNLQVSRVLQRTVIEVDERGTEAVAGILSEITADSMPPVIKVDRPFHFMIYEETSGMLLFLGRVVNPTLL
With B3, the kon in test [2] was determined as 2600 M⁻¹ s⁻¹.

Broadly, the kon is the rate constant with which the complex forms. High values mean fast association, low ones slow association. By Kd is commonly meant the equilibrium constant for the complex coming apart. A low value points to tighter binding.
